Data taken from US20120100561A1 (published 2012).

Molecular target: T1, Flag-PKN3 wt (N-terminal Flag epitope-tagged full-length kinase active human PKN3) (human, UniProt Q6P5Z2 1-889)
T1 construct: Expressed from pcDNA3 in HEK293T or PC3 cells and pulled down with anti-Flag M2 resin; The kinase-dead version carries K588R; also called Flag-tagged PKN3; kinase-active form of PKN3
Assay: anti-Flag M2 co-immunoprecipitation from transfected HEK293T cells, Western blot
Description: Thus, PKN3, RhoC and PDK1 form a ternary complex (“PPRC complex.”)
For immunoprecipitations with Flag (FIG. 4B), HEK293T cells (5×10⁵ cells/10-cm tissue culture dish) were either singly transfected or cotransfected with the indicated plasmids (Flag-PKN3 wt [full-length kinase active], Flag-PKN3 kd [kinase-dead PKN3], Myc-RhoA, Myc-RhoB or Myc-RhoC) by FUGENE® transfection reagent. After 6 hours of incubation at 37° C. in a 5% CO₂ incubator, cells were washed twice in serum-free Dulbecco's modified Eagle's medium (DMEM), and fresh medium (DMEM, 10% fetal bovine serum) was added to the cells for a further 48 h of incubation. Cells were washed with phosphate-buffered saline (PBS) and lysed in 0.5 ml of lysis buffer (50 mM Tris-HCl [pH 7.5], 150 mM NaCl, 10 mM β-glycerolphosphate, 10% glycerol, 1% Triton X-100, 1 mM Na₃VO₄, 1 mM NaF, and protease inhibitors [Roche Molecular Biochemicals]) for 30 minutes on ice. […] The beads were then washed three times with TBS buffer (50 mM Tris-HCl [pH 7.5], 150 mM NaCl), and bound proteins were eluted with TBS buffer containing 10% glycerol, 1 mM DTT and 200 μg of Flag peptide (Sigma)/ml. The bound products were visualized by Western blot analysis (FIG. 4).

T1 sequence (Q6P5Z2 other isoform, or with tags, fused parts or gaps limits assumed): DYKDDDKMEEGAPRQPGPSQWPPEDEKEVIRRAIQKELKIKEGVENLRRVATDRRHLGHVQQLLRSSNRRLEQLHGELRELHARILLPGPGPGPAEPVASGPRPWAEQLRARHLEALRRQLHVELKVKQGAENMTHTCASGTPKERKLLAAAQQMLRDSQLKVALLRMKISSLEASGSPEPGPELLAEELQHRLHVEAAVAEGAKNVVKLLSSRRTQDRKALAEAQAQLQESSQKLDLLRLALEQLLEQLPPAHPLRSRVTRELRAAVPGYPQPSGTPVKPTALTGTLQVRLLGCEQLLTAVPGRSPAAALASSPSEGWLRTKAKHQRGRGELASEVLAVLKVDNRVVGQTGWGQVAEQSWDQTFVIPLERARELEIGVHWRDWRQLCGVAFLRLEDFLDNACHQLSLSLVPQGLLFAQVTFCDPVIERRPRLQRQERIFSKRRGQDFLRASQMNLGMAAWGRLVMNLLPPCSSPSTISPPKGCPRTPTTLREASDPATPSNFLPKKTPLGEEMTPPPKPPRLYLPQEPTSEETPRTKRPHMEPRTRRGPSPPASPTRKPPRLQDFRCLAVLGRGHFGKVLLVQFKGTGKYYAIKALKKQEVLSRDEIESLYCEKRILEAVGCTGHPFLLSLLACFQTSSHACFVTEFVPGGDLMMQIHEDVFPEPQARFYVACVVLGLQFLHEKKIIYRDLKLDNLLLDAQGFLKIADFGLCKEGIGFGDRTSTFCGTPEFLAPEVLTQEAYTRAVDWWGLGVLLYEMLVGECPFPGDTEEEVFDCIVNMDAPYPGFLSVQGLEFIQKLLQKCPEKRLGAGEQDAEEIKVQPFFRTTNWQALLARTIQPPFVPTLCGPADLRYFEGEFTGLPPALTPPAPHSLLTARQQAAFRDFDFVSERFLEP

B1: phosphoinositide-dependent kinase-1 (PDK1) (enzyme, UniProt O15530 1-556, looked up)
chain: MARTTSQLYDAVPIQSSVVLCSCPSPSMVRTQTESSTPPGIPGGSRQGPAMDGTAAEPRPGAGSLQHAQPPPQPRKKRPEDFKFGKILGEGSFSTVVLARELATSREYAIKILEKRHIIKENKVPYVTRERDVMSRLDHPFFVKLYFTFQDDEKLYFGLSYAKNGELLKYIRKIGSFDETCTRFYTAEIVSALEYLHGKGIIHRDLKPENILLNEDMHIQITDFGTAKVLSPESKQARANSFVGTAQYVSPELLTEKSACKSSDLWALGCIIYQLVAGLPPFRAGNEYLIFQKIIKLEYDFPEKFFPKARDLVEKLLVLDATKRLGCEEMEGYGPLKAHPFFESVTWENLHQQTPPKLTAYLPAMSEDDEDCYGNYDNLLSQFGCMQVSSSSSSHSLSASDTGLPQRSGSNIEQYIHDLDSNSFELDLQFSEDEKRLLLEKQAGGNPWHQFVENNLILKMGPVDKRKGLFARRRQLLLTEGPHLYYVDPVNKVLKGEIPWSQELRPEAKNFKTFFVHTPNRTYYLMDPSGNAHKWCRKIQEVWRQRYQSHPDAAVQ
notes: It co-precipitated with Flag-PKN3 from cell lysates
binding result: binds
